Reference: publication PMC5173319, “Crenactin forms actin-like double helical filaments regulated by arcadin-2” (eLife, 2016)

B1: Pyrobaculum calidifontis arcadin-2 (natural protein, UniProt A3MWN6 1-203, looked up)
chain: MDFPKVLLIRHFTEVLGMKYAGEGGEVLWFEEGLNRVAVGIYFTDLYEEAELYKRVGALMGLGASKVFLAVLPDALAFVDPRYFKANGVGLVVVDPAKGVDGVEVKIFARARPAAVEPLKIDAVKAALHEYLASELKRVEESLFEKVRRYVDQRVEEVKRALQAVEEAKRAAPPVQRAAAESAQEPRGGIGENEWVKILRSKR
notes: arcadin-2, Pyrobaculum calidifontis, NCBI WP_011850311.1; untagged, native protein from pHis17; The construct used for co-expression with crenactin is not described; also called full-length arcadin-2; source: E. coli C41(DE3), purified (heat step 60°C, ammonium sulphate precipitation, Sephacryl S300); also co-expressed with crenactin and purified as a complex
B2: arcadin-2 C-terminal peptide (residues 187-203) (peptide, UniProt A3MWN6 187-203, looked up)
peptide: RGGIGENEWVKILRSKR
notes: arcadin-2, Pyrobaculum calidifontis, NCBI WP_011850311.1, residues R187 to R203 (the last 17 amino acids); also called arcadin-2 peptide; C-peptide; source: synthetic peptide (Generon, U.K)
B3: Pyrobaculum calidifontis crenactin (natural protein, UniProt A3MWN5 1-432, looked up)
chain: MGVISDAYRLKYTFGVDFGTSYVKYGPITLNEPKMVQTRGLFLRDLPESVKMRIPPDVLARGLVVGDEEVRKYLSSVRDVQRNLKYPLKDGVARRDDEEAWRVLKELARYTLAQFPVSDPEFAGWLVAVALSALAPDYMYKAIFDIYDELASEFKIYAVTILPQPLAVAIAENAVNCVIVEGGHGNIQVAPISFALIREGLVALNRGGAEANAITREILKDIGYSDIAREEYAVEVVKRAVGLVPRRLKEAIRAAKSDPDRFVTKVRLSPVVEVEIPREYAWTRFLIGEIVFDPNHEEIKSYIEQSRLRIENAVIGDVTLYGEMDVASAIITSLRNVSVEIQERVASQIILSGGAFSWRVPPGMEDVAADSVTRVKIALEEKSPALASKVEVRLVSEPQYSVWRGAVIYGYALPLSLEWSDTTREGWRFPRR
notes: codon-optimised gene in pOPIN-S; Forms double-stranded helical filaments with ATP and MgCl2; The construct used for co-expression with arcadin-2 is not described; also called PCC; source: E. coli C41(DE3), purified (Ni-NTA, elution by SUMO tag cleavage with SENP1, Sephacryl S300); also co-expressed with arcadin-2 and purified as a complex; not shown: His6, N-terminal, cleaved; SUMO, N-terminal, …

How the values were obtained:
[1] = molecular target: B3; test: SPR; crenactin immobilised by amide coupling on CM5 chip (~700 RU), Biacore T200, PBS-0.005% Tween 20, 20°C; arcadin-2 or arcadin-2ΔC in 1:2 dilution series from 2 µM; kinetic fits, Kd = koff/kon; details: both partners purified
[2] = molecular target: B3; test: crystal structure; crenactin at 7 mg/ml mixed with arcadin-2 peptide at molar ratio 1 to 3; 0.31 M sodium acetate, 12.8% PEG 4000, 0.1 M sodium acetate pH 4.5; 1.6 Å; details: both partners purified
[3] = molecular target: the molecule itself; test: cryo-EM structure; crenactin 0.5-1 mg/ml in 50 mM NH4HCO3, 20 mM KCl, polymerised with 2 mM ATP and 4 mM MgCl2 for 30 min on ice; helical reconstruction in RELION 2.0

Binder: B1
Kd [1]: 31 nM

Binder: B2
binding result [2]: binds

Binder: B3
binding result [3]: binds
